Molecular target: Aβ(1-40) peptide, monomeric (UniProt P05067 672-711)
Assay: SPR

Kd: 0.54 nM
B1: anticalin H1GA (Aβ-anticalin) (designed binder)
chain: QDSTSDLIPAPPLSKVPLQQNFQDNQFHGKWYVVGAAGNVLLREDKDPLKMYATIYELKEDKSYNVTSVGFDDKKCLYKIRTFVPGSQPGEFTLGRIKSEPGGTSWLVRVVSTNYNQHAMVFFKEVAQNRETFNITLYGRTKELTSELKENFIRFSKSLGLPENHIVFPVPIDQCIDG
